# Assay results: the supplement of paper PMC9942255
# Where “and” joins values, the source holds several entries; their conditions need not be identical. Equal entries are not always repeated.
# System: Bacillus subtilis DB104 (SP-AmyQ fusion secretion)
# Assay: AmyQ secretion efficiency, weighted average sort bin (1 = best secretion, 10 = worst) (bin number (weighted average, 1-10)); higher = lower secretion efficiency
# Outline: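 The secretion score was taken as the read-frequency-weighted mean bin number, normalised to beads per bin, with low-abundance sequences excluded. Bins came from large-particle flow cytometry sorting of occupied alginate beads (~65 nL, about 0.3 cells each, with fluorescein-starch) into 10 equally populated groups by green/red fluorescence ratio after about 13 h at room temperature and nile red staining. The cells were a B. subtilis DB104 library with mature AmyQ fused to designed signal peptides, integrated at amyE, and each bin's amplicons were Illumina-sequenced.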
row,Sequence,AmyQ secretion efficiency
1,MKLAKRVSALTPSTTLAITAKYKEL,5.07
2,MKKAFLVFLSVVLVTTVFLVKQQESVSGAQAKQL,4.03
3,MKKQIKKKRKKVVLGSTLFAGAASAQSI,7.55
4,MKKAAAVLLSLGLVFGFSYGAGHVAEAAED,3.87
5,MKKLLAAGIIGLLTVSIASPSFAADD,2.83
6,MKRIRIPMTLALGAALTIAPLSFVSAEEN,2.58
7,MKKTIMSFVAVAALSTTAFGAHASYKEI,7
8,MKLKSKLLLSCLALSTVFVATTIWNAPTH,6.19
9,MNKLKRLSMLKKKKASVFIFSSHALAAQY,6.52
10,MAAQTDYKKQVVGILLSLAFVLFVFSPSERHE,5.34
11,MKKSQYFIVFICFFVLFSEHEEAAAAADS,4.11
12,MKKWMITIAMLILAGIALFVFISPWKSHKT,6.16
13,MKKLVLCVSILAVILSGVWLTQLS,5.87
14,MFNRLFRVCFLAALIMAFTLPNSVYGQKP,2.74
15,MKKKLAAGLTASAIVGTTLVVTPQEAATI,5.9
16,MKLWMRKTLVVLFTIVTFGLVSPPAALMYDKP,3.73
17,MNFKKTVVSALSISALALSVSGVVSAHEI,2.69
18,MKRKLLSSLAISALSLGLLVSAPTASFVAES,6.45
19,MKLWMRKTLVVLFTIVTFGLVSPPAAKMADKP,3.22
20,MKKRLIAPMLLSAASLAFFAMSGSPQAAAY,5.7
21,MRSKKLWISLLFALTLIFTMAFSNMSDQAAGK,2.84
22,MKMKSGMEQAVSVLLLLSRLPVQASLTRK,7.01
23,MKKAKRVSALTPSTTLAITAKAKEL,7.61
24,MLTKRTTTSLLTIYIMLLGLIAWFPGAAQAEEK,3.1
25,MFKKHTKRKRRKFLLASAVLAKPIEAHTV,7.89
26,MKRFLIGAGVAAVILSGWFIADHQKHSQEM,5.36

row,Sequence,AmyQ secretion efficiency
1,MKRKKLLSTLLIGIMLLTFAPSAFAKQD,1.35
2,MKLAKRVSALTPSTTLAITAKEKEL,7.18
3,MKKKLAAGLTASAIVGTTLVVTPAEAATD,2.88
4,MKRQRLLVSLRVWMVFLMNWVTPDRKTAAAAVY,6.95
5,MKKWMITIAMLILAGIALFVFISPIKSHKT,6.77
6,MIKKCSVCLWILVLLLSCLSGKSAYAATS,2.24
7,MKSCKQLRRCKRRRILLLIPSVSFAADS,7.57
8,MRKKLKWLSFLLGFIILLFLFKKRKKRFSNNDS,7.3
9,MRRSLALCGLALTLAPCAQAAEP,2.27
10,MKKIVSILFMFGLVMSIISLGFSQFQPSTVFAADK,2.96
11,MRPVFPLILSAVLFLSCFFGATQTEASASKR,2.13
12,MHLIRAAGAVCLAVVLIAGCRFNEDQHQAEGENT,5.94 and 6.42
13,MTGTTVSTAIIIISVMLSFVIAVFHTIHASELTP,4.15
14,MAIIIAIIAAVIVIAALITFNVRNQSPG,9.31
15,MKKWIYVVLVLSIAGIGGFSSHAASS,6.17
16,MKFVKRRIIALVTILMLSVTSLFALQPSFTPSPFFTVAKAAEH,2.95
17,MKLWMRKTQKGLFTIVTFGLVSPPAALMADKP,5.07
18,MKKVGLLAGCLAAGGFSYNAFATEN,6.86
19,MPYLKRVLLLLVTGLFMSLFAVTATASDQTG,1.01
20,MMKKLFHSTLIVLLFFSFFGVQPEIHAKKQ,2.24
21,MKSLPYTIALLFCGLIIVSMAAKGHED,7.33
22,MTRTGAIIAAVIVIAALITFNVRNASPG,7.74
23,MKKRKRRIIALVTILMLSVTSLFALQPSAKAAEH,2.06
24,MKKWIYVVLVLSIAGIGGISVSAFSVHAASS,5.09
25,MKKWMITIAMLILAGIALFVFISPNKSHKT,5.8
26,MKLSVKIAGVLTVAAAAMTAKMYATFTGTFAATAKGN,7.49
